Measurements from publication PMC12843318, “Zinc-Finger 5 Is an Activation Domain in the Saccharomyces cerevisiae Stress-Responsive Transcription Factor Fzf1”.

Legend:
Fzf1 = molecular target: T1, Fzf1 (Saccharomyces cerevisiae, UniProt P32805 1-299); experiment: EMSA; poly dI-dC, BSA; EMSA: 0.1 pmol dsDNA probe, 2 ng BSA, 0.5 ug poly dI-dC (added after incubation), EMSA binding buffer (composition, salt and pH not given), 20 min on ice, 6% native PAGE; protein 0-150 nM; details: protein: recombinant; tags: GST fusion from pGEX-6p-1 (pGEX-FZF1); tag removal by PreScission described only for N117; blunt
T1 sequence: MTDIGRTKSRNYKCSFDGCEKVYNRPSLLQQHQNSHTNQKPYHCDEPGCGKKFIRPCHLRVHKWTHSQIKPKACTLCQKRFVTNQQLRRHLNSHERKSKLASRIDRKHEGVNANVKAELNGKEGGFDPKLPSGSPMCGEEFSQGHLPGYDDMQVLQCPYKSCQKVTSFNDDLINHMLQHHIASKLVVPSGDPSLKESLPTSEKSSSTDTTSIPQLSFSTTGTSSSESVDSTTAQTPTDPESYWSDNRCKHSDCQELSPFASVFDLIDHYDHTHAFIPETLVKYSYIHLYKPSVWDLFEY

Fzf1-N117 = molecular target: T2, Fzf1-N117 (Saccharomyces cerevisiae, UniProt P32805 1-117); experiment: as above; details: protein: recombinant; tags: N-terminal GST removed by PreScission protease; blunt
T2 sequence: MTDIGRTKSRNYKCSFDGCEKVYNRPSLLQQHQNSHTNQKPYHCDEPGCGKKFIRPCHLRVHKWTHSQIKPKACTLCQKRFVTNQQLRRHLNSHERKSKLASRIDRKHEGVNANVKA

B1: SSU1-CS2 (dsDNA)
DNA 1: GAAAAAAAAATGATAGTTTGCAGGAAG
DNA 2: CTTCCTGCAAACTATCATTTTTTTTTC
Kd (Fzf1): ~35 nM | Kd (Fzf1-N117): ~30 nM
